{
  "source": "patent US20230064703A1",
  "data": [
    {"target": "human GITR expressed on Cho-K1 cells (human) (UniProt Q9Y5U5)", "sequence (Q9Y5U5 26-241)": "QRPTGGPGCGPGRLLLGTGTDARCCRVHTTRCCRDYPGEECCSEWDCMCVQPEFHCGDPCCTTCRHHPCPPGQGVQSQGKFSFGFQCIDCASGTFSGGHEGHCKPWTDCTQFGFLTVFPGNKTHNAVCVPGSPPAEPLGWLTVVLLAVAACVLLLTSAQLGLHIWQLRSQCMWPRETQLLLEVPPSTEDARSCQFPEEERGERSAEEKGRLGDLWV", "experiment": "FACS, chimeric antibody on GITR/Cho-K1 cells, geometric mean, 4-parameter fit", "units": {"EC50": "µg/mL"}, "values": [
      {"binder": "chimeric antibody 384H3H11 (human IgG1) (antibody, V domains shown) VH: QVQLKQSGPGLVQPSQSLSITCTVSGFSLTSYGVHWVRQSPGKGLEWLGVIWSGGSTDYNAAFISRLSISKDNSKSQVFFKMNSLQANDTAIYYCARIGLRSFAYWGQGTLVTVSA VL: DIVMTQSPSSLTVTAGEKVTMSCKSSQSLLNSGNQKNYLTWYQQKPGQPPKLLIYWASTRESGVPDRFTGSGSGTDFTLTISSVQAEDLAVYYCQNDYSYPFTFGSGTKLEIKR", "EC50": 219},
      {"binder": "chimeric antibody 274C7H2 (human IgG1) (antibody, V domains shown) VH: QVQLQQSGAELAKPGASVKLSCKASGYTFTSYWMHWVKQRPGQGLEWIGYINPSSGYTKYNQKFKDKATLTADKSSSTAYMQLSSLTYEDSAVYYCARNPSYDYYAMDYWGQGTSVTVSS VL: QAVVTQESALTTSPGETVTLTCRSSTGAVTTSNYANWVQEKPDHLFTGLIGGTNNRAPGVPARFSGSLIGDKAALTITGAQTEDEAIYFCALWYSNHFIFGSGTKVTVLR", "EC50": 331},
      {"binder": "chimeric antibody 225A8D9 (human IgG1) (antibody, V domains shown) VH: QVQLQQSGPELVKPGASVKISCKASGYAFSSSWMNWVKQRPGKGLEWIGRIYPGDGNINYDGKFKGEATLTADKSSSTAYIQLSSLTSEDSAVYFCARSAWLGKTYVMDYWGQGTSVTVSS VL: EIVVTQSPAITAASLGQKVTITCSASSSVTYMNWYQQKSGTSPKPWIYEISKLASGVPAHFSGSGSGTSYSLTISSLEAEDAAIYYCQQWNFPFTFGSGTKVEIRR", "EC50": 0.252},
      {"binder": "chimeric antibody 204C10G12 (human IgG1) (antibody, V domains shown) VH: QVQLQQPGAELVKPGASVKMSCKASGYTFTSYWITWVKQRPGQGLEWIGDIYPGSDSTNYNEKFKNKATLTVDTSSSTAYMQLSSLTSEDSAVYYCARGDDFWYFDVWGTGTTVTVSS VL: DVLMTQTPLSLPVSLGDQASISCRSSQSIVHSNGNTYLEWYLQKPGQSPKLLIYKVSNRFSGVPDRFSGSGSGTDFTLKISRVEAEDLGVYYCFQGSHVPLTFGAGTKLELKR", "EC50": 19400},
      {"binder": "chimeric antibody 172H7B9(H-La) (human IgG1) (antibody, V domains shown) VH: QVTLKESGPGILQSSQTLSLTCSFSGFSLSPSGMGVTWIRQPSGKGLEWLAHIYWDDVKRYNPSLKSRLTISKDTSRNQVFLKITGVDTADTATYYCARRGSYSDYGGWSFDVWGTGTTVTVSS VL: DIVMTQSPSSLSVSAGEKVTMSCKSSQSLFNSGNQKNYLAWYQQKPGQPPKLLIYGASTRESGVPDRFTGSGSGSDFTLTISSVQAEDLAVYYCQNDHSYPPTFGSGTKLEIKR", "EC50": 0.0499},
      {"binder": "chimeric antibody 223F12C4 (human IgG1) (antibody, V domains shown) VH: QVQLQQSGAELVKPGASVKVSCKASGYSFTSYWIHWVKQRPGQGLEWIGRIHPSDGDIDHNEKFKGKATLTVDKSSSTAYMQLTSLTSEDSAVYYCLCYIMDYWGQGTSVTVSS VL: DIQMNQSPSSLSASLGDTIAITCHASQNINVWLSWYQQKPGNIPKLLIYKAAKLQTGVPSRFSGSGSGTGFTLTISSLQPEDIATYYCHQGQDYPLTFGAGTKLELKR", "EC50": 1.59}
    ]},
    {"target": "human GITR expressed on Cho-K1 cells (human) (UniProt Q9Y5U5)", "experiment": "FACS, Cho-K1 cells expressing human GITR, mouse mAb, iFluor 647 anti-mouse IgG detection", "units": {"EC50": "µg/mL"}, "values": [
      {"binder": "anti-GITR mouse monoclonal antibody 223F12C4 (antibody, V domains shown) VH: QVQLQQSGAELVKPGASVKVSCKASGYSFTSYWIHWVKQRPGQGLEWIGRIHPSDGDIDHNEKFKGKATLTVDKSSSTAYMQLTSLTSEDSAVYYCLCYIMDYWGQGTSVTVSS VL: DIQMNQSPSSLSASLGDTIAITCHASQNINVWLSWYQQKPGNIPKLLIYKAAKLQTGVPSRFSGSGSGTGFTLTISSLQPEDIATYYCHQGQDYPLTFGAGTKLELK", "EC50": 0.000454},
      {"binder": "anti-GITR mouse monoclonal antibody 45F1F3 (antibody, V domains shown) VH: DVQLQESGPGLVKPSQSLSLTCTVTGYSITIDYAWNWIRQFPGNKLEWMGYISNSGYTSYNPSLKSRISFTRDTSKNQFFLQLNSVTPEDSATYYCTRSGHYDLFDYWGQGTTLTVSS VL: DVVMTQAPLTLSVTIGQPASISCKSSQSLFDRDGKTYLSWLLERPGQSPKRLIYLVSNLDSGVPDRFTGSGSGTDFTLKISRVEAEDLGVYYCWQGTHFPYTFGGGTKVEMK", "EC50": 0.000508},
      {"binder": "anti-GITR mouse monoclonal antibody 225H7D12 (antibody, V domains shown) VH: QVQLQQSGAEVMKPGASVKLSCKTTGYRFTGYWIEWVKQRPGHGLEWIGEILPGSGVSNNNEKFRDKATFTADTSSNTAYIQLSSLTTDDSAIYYCARKASYYTMDYWGQGTSVTVSS VL: QIVLTQSPAIMSASLGERVTMTCTASSSVSSFYFHWYQQKPGSSPKLWIYSISNLASGVPTRFSGSGSGTSYSLTISSMEAEDAATYYCHQYHRSPRTFGGGTKLEIK", "EC50": 0.000522},
      {"binder": "anti-GITR mouse monoclonal antibody 204C10G12 (antibody, V domains shown) VH: QVQLQQPGAELVKPGASVKMSCKASGYTFTSYWITWVKQRPGQGLEWIGDIYPGSDSTNYNEKFKNKATLTVDTSSSTAYMQLSSLTSEDSAVYYCARGDDFWYFDVWGTGTTVTVSS VL: DVLMTQTPLSLPVSLGDQASISCRSSQSIVHSNGNTYLEWYLQKPGQSPKLLIYKVSNRFSGVPDRFSGSGSGTDFTLKISRVEAEDLGVYYCFQGSHVPLTFGAGTKLELK", "EC50": 0.000199},
      {"binder": "anti-GITR mouse monoclonal antibody 223H11H1 (antibody, V domains shown) VH: EVQLQQSGPELVKPGASVKISCKASGYTFTAHYMNWVKKSQGKSLEWIGDINPDNGIIRYNQKFKDKATLTVDKSSSTVFLEFRSLASEDSAVYYCARREALDYWGQGSSVTVSS VL: DVLMTQIPLSLTVSLGDQASISCRSSQSIVYSNGKVYLNWYQQKPGQSPKLLIYKVSDRFSGVPDRFSGSGSGTDFTLKINRVEAEDLGVYYCLQGSHIPWTFGGGTKLEIK", "EC50": 0.000931},
      {"binder": "anti-GITR mouse monoclonal antibody 274C7H2 (antibody, V domains shown) VH: QVQLQQSGAELAKPGASVKLSCKASGYTFTSYWMHWVKQRPGQGLEWIGYINPSSGYTKYNQKFKDKATLTADKSSSTAYMQLSSLTYEDSAVYYCARNPSYDYYAMDYWGQGTSVTVSS VL: QAVVTQESALTTSPGETVTLTCRSSTGAVTTSNYANWVQEKPDHLFTGLIGGTNNRAPGVPARFSGSLIGDKAALTITGAQTEDEAIYFCALWYSNHFIFGSGTKVTVL", "EC50": 0.141},
      {"binder": "anti-GITR mouse monoclonal antibody 384H3H11 (antibody, V domains shown) VH: QVQLKQSGPGLVQPSQSLSITCTVSGFSLTSYGVHWVRQSPGKGLEWLGVIWSGGSTDYNAAFISRLSISKDNSKSQVFFKMNSLQANDTAIYYCARIGLRSFAYWGQGTLVTVSA VL: DIVMTQSPSSLTVTAGEKVTMSCKSSQSLLNSGNQKNYLTWYQQKPGQPPKLLIYWASTRESGVPDRFTGSGSGTDFTLTISSVQAEDLAVYYCQNDYSYPFTFGSGTKLEIK", "EC50": 0.00497},
      {"binder": "anti-GITR mouse monoclonal antibody 225A8D9 (antibody, V domains shown) VH: QVQLQQSGPELVKPGASVKISCKASGYAFSSSWMNWVKQRPGKGLEWIGRIYPGDGNINYDGKFKGEATLTADKSSSTAYIQLSSLTSEDSAVYFCARSAWLGKTYVMDYWGQGTSVTVSS VL: EIVVTQSPAITAASLGQKVTITCSASSSVTYMNWYQQKSGTSPKPWIYEISKLASGVPAHFSGSGSGTSYSLTISSLEAEDAAIYYCQQWNFPFTFGSGTKVEIR", "EC50": 0.0026}
    ]},
    {"target": "human GITR expressed on Cho-K1 cells (human) (UniProt Q9Y5U5)", "experiment": "FACS binding assay with GITR/Cho-K1, humanized antibody", "units": {"EC50": "µg/mL"}, "values": [
      {"binder": "humanized antibody 45F1F3 VH1.1 + VL1 (antibody, V domains shown) VH: QVQLQESGPGLVKPSQTLSLTCTVTGYSITIDYAWNWIRQPPGKGLEWIGYISNSGYTSYNPSLKSRVTFSRDTSKNQFSLKLSSVTAADTAVYYCTRSGHYDLFDYWGQGTTVTVSS VL: DVVMTQSPLSLPVTLGQPASISCKSSQSLFDRDGKTYLSWFQQRPGQSPRRLIYLVSNLDSGVPDRFSGSGSGTDFTLKISRVEAEDVGVYYCWQGTHFPYTFGGGTKVEIK", "EC50": 0.107},
      {"binder": "humanized antibody 270C5C10 VH1.2 + VL1 (antibody, V domains shown) VH: QVQLVQSGAEVKKPGASVKVSCKASGYTFTDNYMNWVRQAPGQSLEWIGDINPNNGGSRYKEKFKDRATLTVDTSIRTAYMELSRLRSDDTAVYYCANPGSYGFAYWGQGTLVTVSS VL: DVVMTQSPLSLPVTLGQPASISCKSSQSLLDSDGRTYLNWFQQRPGQSPRRLIYLVSQLDSGVPDRFSGSGSGTDFTLKISRVEAEDVGVYYCWQGTHFPWTFGGGTKLEIK", "EC50": 0.0424},
      {"binder": "humanized antibody 225H7D12 VH1.1 + VL1.2 (antibody, V domains shown) VH: QVQLVQSGAEVKKPGASVKVSCKTTGYRFTGYWIEWVRQAPGQGLEWIGEILPGSGVSNNNEKFRDRATMTADTSISTAYMELSRLRSDDTAVYYCARKASYYTMDYWGQGTLVTVSS VL: DIQMTQSPSSLSASVGDRVTITCTASSSVSSFYFHWYQQKPGKAPKLWIYSISNLASGVPSRFSGSGSGTSYTLTISSLQPEDFATYYCHQYHRSPRTFGGGTKLEIK", "EC50": 0.0755},
      {"binder": "humanized antibody 45F1F3 VH1.3 + VL1.1 (antibody, V domains shown) VH: QVQLQESGPGLVKPSQTLSLTCTVTGYSITIDYAWNWIRQPPGKGLEWMGYISNSGYTSYNPSLKSRVTISRDTSKNQFFLKLSSVTAADTAVYYCTRSGHYDLFDYWGQGTTVTVSS VL: DVVMTQSPLSLPVTLGQPASISCKSSQSLFDRDGKTYLSWLLQRPGQSPRRLIYLVSNLDSGVPDRFSGSGSGTDFTLKISRVEAEDVGVYYCWQGTHFPYTFGGGTKVEIK", "EC50": 0.106},
      {"binder": "humanized antibody 270C5C10 VH1.4 + VL1 (antibody, V domains shown) VH: QVQLVQSGAEVKKPGASVKVSCKASGYTFTDNYMNWARQSPGQSLEWIGDINPNNGGSRYKEKFKDRATLTVDTSIRTAYMELSRLRSDDTAVYYCANPGSYGFAYWGQGTLVTVSS VL: DVVMTQSPLSLPVTLGQPASISCKSSQSLLDSDGRTYLNWFQQRPGQSPRRLIYLVSQLDSGVPDRFSGSGSGTDFTLKISRVEAEDVGVYYCWQGTHFPWTFGGGTKLEIK", "EC50": 0.0558},
      {"binder": "humanized antibody 225H7D12 VH1.3 + VL1.2 (antibody, V domains shown) VH: QVQLVQSGAEVKKPGASVKVSCKASGYRFTGYWIEWVKQAPGQGLEWIGEILPGSGVSNNNEKFRDRATMTADTSINTAYMELSRLRSDDTAVYYCARKASYYTMDYWGQGTLVTVSS VL: DIQMTQSPSSLSASVGDRVTITCTASSSVSSFYFHWYQQKPGKAPKLWIYSISNLASGVPSRFSGSGSGTSYTLTISSLQPEDFATYYCHQYHRSPRTFGGGTKLEIK", "EC50": 0.082},
      {"binder": "humanized antibody 45F1F3 VH1.4 + VL1.1 (antibody, V domains shown) VH: DVQLQESGPGLVKPSQTLSLTCTVTGYSITIDYAWNWIRQPPGKGLEWMGYISNSGYTSYNPSLKSRITFSRDTSKNQFFLKLSSVTAADTAVYYCTRSGHYDLFDYWGQGTTVTVSS VL: DVVMTQSPLSLPVTLGQPASISCKSSQSLFDRDGKTYLSWLLQRPGQSPRRLIYLVSNLDSGVPDRFSGSGSGTDFTLKISRVEAEDVGVYYCWQGTHFPYTFGGGTKVEIK", "EC50": 0.0704}
    ]}
  ]
}
